Measured values published in patent publication US20260167699A1 (Chugai, published 2026).

The binders below were run against T1, FcγRIIIa (human, UniProt P08637 17-208) (assay: SPR (Biacore);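 further: antibody variants captured on an SPR sensor chip, with FcγRIIIa passed over as analyte in HBS-EP+ buffer at 25 °C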).
T1 construct: extracellular domain; also called 3a; FcγRIIIa extracellular domain
T1 sequence (P08637 other isoform, or with tags, fused parts or gaps): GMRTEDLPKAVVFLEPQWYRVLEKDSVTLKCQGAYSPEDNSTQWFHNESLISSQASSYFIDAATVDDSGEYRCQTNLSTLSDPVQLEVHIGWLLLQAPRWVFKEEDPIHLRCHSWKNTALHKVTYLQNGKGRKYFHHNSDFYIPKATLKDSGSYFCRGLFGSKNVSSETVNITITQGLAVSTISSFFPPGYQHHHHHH

He/Con 3a | Binder
106 % of GpH7-A5/GpH7-B3/GpL16-k0 | GpH7-A5/GpH7-B3 variant E333_13S/GpL16-k0 (antibody, human IgG1, kappa, copies: 1 + 1 + 2) heavy 1: not shown heavy 2: not shown light: DIVMTQSPLSLPVTPGEPASISCQASESLVHSNRNTYLHWYLQKPGQSPQLLIYKVSNRFSGVPDRFSGSGSGTDFTLKISRVEAEDVGVYYCSQNTHVPPTFGQGTKVEIERTVAAPSVFIFPPSDEQLKSGTASVVCLLNNFYPREAKVQWKVDNALQSGNSQESVTEQDSKDSTYSLSSTLTLSKADYEKHKVYACEVTHQGLSSPVTKSFNRGEC
121 % of GpH7-A5/GpH7-B3/GpL16-k0 | GpH7-A5/GpH7-B3 variant H268_02A/GpL16-k0 (antibody, human IgG1, kappa, copies: 1 + 1 + 2) heavy 1: not shown heavy 2: not shown light: DIVMTQSPLSLPVTPGEPASISCQASESLVHSNRNTYLHWYLQKPGQSPQLLIYKVSNRFSGVPDRFSGSGSGTDFTLKISRVEAEDVGVYYCSQNTHVPPTFGQGTKVEIERTVAAPSVFIFPPSDEQLKSGTASVVCLLNNFYPREAKVQWKVDNALQSGNSQESVTEQDSKDSTYSLSSTLTLSKADYEKHKVYACEVTHQGLSSPVTKSFNRGEC
77 % of GpH7-A5/GpH7-B3/GpL16-k0 | GpH7-A5/GpH7-B3 variant G236_02A/GpL16-k0 (antibody, human IgG1, kappa, copies: 1 + 1 + 2) heavy 1: not shown heavy 2: not shown light: DIVMTQSPLSLPVTPGEPASISCQASESLVHSNRNTYLHWYLQKPGQSPQLLIYKVSNRFSGVPDRFSGSGSGTDFTLKISRVEAEDVGVYYCSQNTHVPPTFGQGTKVEIERTVAAPSVFIFPPSDEQLKSGTASVVCLLNNFYPREAKVQWKVDNALQSGNSQESVTEQDSKDSTYSLSSTLTLSKADYEKHKVYACEVTHQGLSSPVTKSFNRGEC
104 % of GpH7-A5/GpH7-B3/GpL16-k0 | GpH7-A5/GpH7-B3 variant E333_20W/GpL16-k0 (antibody, human IgG1, kappa, copies: 1 + 1 + 2) heavy 1: not shown heavy 2: not shown light: DIVMTQSPLSLPVTPGEPASISCQASESLVHSNRNTYLHWYLQKPGQSPQLLIYKVSNRFSGVPDRFSGSGSGTDFTLKISRVEAEDVGVYYCSQNTHVPPTFGQGTKVEIERTVAAPSVFIFPPSDEQLKSGTASVVCLLNNFYPREAKVQWKVDNALQSGNSQESVTEQDSKDSTYSLSSTLTLSKADYEKHKVYACEVTHQGLSSPVTKSFNRGEC
106 % of GpH7-A5/GpH7-B3/GpL16-k0 | GpH7-A5/GpH7-B3 variant E333_16H/GpL16-k0 (antibody, human IgG1, kappa, copies: 1 + 1 + 2) heavy 1: not shown heavy 2: not shown light: DIVMTQSPLSLPVTPGEPASISCQASESLVHSNRNTYLHWYLQKPGQSPQLLIYKVSNRFSGVPDRFSGSGSGTDFTLKISRVEAEDVGVYYCSQNTHVPPTFGQGTKVEIERTVAAPSVFIFPPSDEQLKSGTASVVCLLNNFYPREAKVQWKVDNALQSGNSQESVTEQDSKDSTYSLSSTLTLSKADYEKHKVYACEVTHQGLSSPVTKSFNRGEC
96 % of GpH7-A5/GpH7-B3/GpL16-k0 | GpH7-A5/GpH7-B3 variant H268_04F/GpL16-k0 (antibody, human IgG1, kappa, copies: 1 + 1 + 2) heavy 1: not shown heavy 2: not shown light: DIVMTQSPLSLPVTPGEPASISCQASESLVHSNRNTYLHWYLQKPGQSPQLLIYKVSNRFSGVPDRFSGSGSGTDFTLKISRVEAEDVGVYYCSQNTHVPPTFGQGTKVEIERTVAAPSVFIFPPSDEQLKSGTASVVCLLNNFYPREAKVQWKVDNALQSGNSQESVTEQDSKDSTYSLSSTLTLSKADYEKHKVYACEVTHQGLSSPVTKSFNRGEC

More lines, now with the values behind:

Binder | He/Con 3a
GpH7-A5/GpH7-B3 variant G236_10E/GpL16-k0 (antibody, human IgG1, kappa, copies: 1 + 1 + 2) heavy 1: not shown heavy 2: not shown light: DIVMTQSPLSLPVTPGEPASISCQASESLVHSNRNTYLHWYLQKPGQSPQLLIYKVSNRFSGVPDRFSGSGSGTDFTLKISRVEAEDVGVYYCSQNTHVPPTFGQGTKVEIERTVAAPSVFIFPPSDEQLKSGTASVVCLLNNFYPREAKVQWKVDNALQSGNSQESVTEQDSKDSTYSLSSTLTLSKADYEKHKVYACEVTHQGLSSPVTKSFNRGEC | 65.8 % of GpH7-A5/GpH7-B3/GpL16-k0
GpH7-A5/GpH7-B3 variant G236_15Y/GpL16-k0 (antibody, human IgG1, kappa, copies: 1 + 1 + 2) heavy 1: not shown heavy 2: not shown light: DIVMTQSPLSLPVTPGEPASISCQASESLVHSNRNTYLHWYLQKPGQSPQLLIYKVSNRFSGVPDRFSGSGSGTDFTLKISRVEAEDVGVYYCSQNTHVPPTFGQGTKVEIERTVAAPSVFIFPPSDEQLKSGTASVVCLLNNFYPREAKVQWKVDNALQSGNSQESVTEQDSKDSTYSLSSTLTLSKADYEKHKVYACEVTHQGLSSPVTKSFNRGEC | 112 % of GpH7-A5/GpH7-B3/GpL16-k0
GpH7-A5/GpH7-B3 variant G236_04F/GpL16-k0 (antibody, human IgG1, kappa, copies: 1 + 1 + 2) heavy 1: not shown heavy 2: not shown light: DIVMTQSPLSLPVTPGEPASISCQASESLVHSNRNTYLHWYLQKPGQSPQLLIYKVSNRFSGVPDRFSGSGSGTDFTLKISRVEAEDVGVYYCSQNTHVPPTFGQGTKVEIERTVAAPSVFIFPPSDEQLKSGTASVVCLLNNFYPREAKVQWKVDNALQSGNSQESVTEQDSKDSTYSLSSTLTLSKADYEKHKVYACEVTHQGLSSPVTKSFNRGEC | 81 % of GpH7-A5/GpH7-B3/GpL16-k0
GpH7-A5/GpH7-B3 variant G236_09D/GpL16-k0 (antibody, human IgG1, kappa, copies: 1 + 1 + 2) heavy 1: not shown heavy 2: not shown light: DIVMTQSPLSLPVTPGEPASISCQASESLVHSNRNTYLHWYLQKPGQSPQLLIYKVSNRFSGVPDRFSGSGSGTDFTLKISRVEAEDVGVYYCSQNTHVPPTFGQGTKVEIERTVAAPSVFIFPPSDEQLKSGTASVVCLLNNFYPREAKVQWKVDNALQSGNSQESVTEQDSKDSTYSLSSTLTLSKADYEKHKVYACEVTHQGLSSPVTKSFNRGEC | 66.2 % of GpH7-A5/GpH7-B3/GpL16-k0
GpH7-A5/GpH7-B3 variant G236_20W/GpL16-k0 (antibody, human IgG1, kappa, copies: 1 + 1 + 2) heavy 1: not shown heavy 2: not shown light: DIVMTQSPLSLPVTPGEPASISCQASESLVHSNRNTYLHWYLQKPGQSPQLLIYKVSNRFSGVPDRFSGSGSGTDFTLKISRVEAEDVGVYYCSQNTHVPPTFGQGTKVEIERTVAAPSVFIFPPSDEQLKSGTASVVCLLNNFYPREAKVQWKVDNALQSGNSQESVTEQDSKDSTYSLSSTLTLSKADYEKHKVYACEVTHQGLSSPVTKSFNRGEC | 126 % of GpH7-A5/GpH7-B3/GpL16-k0
